B1: PEX7–GFP: PEX7 fused at the C terminus to a linker (SGSG) followed by mEGFP (protein)
chain: MLRYHMQGFSGYGVQYSPFFDNRLAVAAGSNFGLVGNGKLFILEIDRSGRIVEVNSFLTQDCLFDLAWNESHENQVLVAQGDGTLRLFDTTFKEFPIAIFKEHEREVFSCNWNLVNRQNFLSSSWDGSIKIWSPLRKQSLMTLTPRPLEITKMVDPLNAIILKKKSFTGISKNRNCVYQAQFSPHDQNLVLSCSGNSYASLFDIRLPSGKNQNNFLVHSGLEALTCDFNKYRPYVVATGGVDNAIRIWDIRMLNKNESATIKRTVPGQLHNSSCINEIPNAHGLAIRKVTWSPHHSNILMSASYDMTCRIWRDLSNDGAKETYKTNSTDATKGSIFNFTQHSEFVFGADWSLWGKPGYVASTAWDGNLFVWNGLG
modifications: left off: GST, N-terminal, cleaved | GFP, C-terminal, kept
B2: PEX7: full-length PEX7 from S. cerevisiae (GenBank accession no. NP_010426.1) (protein)
chain: MLRYHMQGFSGYGVQYSPFFDNRLAVAAGSNFGLVGNGKLFILEIDRSGRIVEVNSFLTQDCLFDLAWNESHENQVLVAQGDGTLRLFDTTFKEFPIAIFKEHEREVFSCNWNLVNRQNFLSSSWDGSIKIWSPLRKQSLMTLTPRPLEITKMVDPLNAIILKKKSFTGISKNRNCVYQAQFSPHDQNLVLSCSGNSYASLFDIRLPSGKNQNNFLVHSGLEALTCDFNKYRPYVVATGGVDNAIRIWDIRMLNKNESATIKRTVPGQLHNSSCINEIPNAHGLAIRKVTWSPHHSNILMSASYDMTCRIWRDLSNDGAKETYKTNSTDATKGSIFNFTQHSEFVFGADWSLWGKPGYVASTAWDGNLFVWNGLG
modifications: left off: GST, N-terminal, cleaved

Experiments:
[1] = system: peroxisomes in Xenopus egg extract; test: Peroxisomal protein import assay in Xenopus egg extract; assay type: biochemical, Xenopus laevis; conditions: GFP fusion, 1 h
Procedure: Import reactions were performed exactly as described in a previously published protocol. Briefly, extract was mixed with 500 nM of the indicated cargo and 100 nM of the indicated receptor variants with or without 100 nM PEX7, and incubated at 24 °C. Where stated, endogenous PEX5 was first depleted from the extract using agarose beads covalently conjugated to the high-affinity PEX5-binding domain from PEX14. Recombinant proteins were diluted in XBHS buffer (40 mM HEPES·KOH pH 7.7 at RT, 100 mM KCl, 1 mM MgCl2, 0.1 mM CaCl2 and 250 mM sucrose) before being added to the reactions. For imaging, an aliquot of each reaction was sandwiched between two 22 × 22 mm no. […] The samples were illuminated by an 80-mW solid-state 488-nm laser through a Di01-T405/488/568/647 dichroic (Semrock), and fluorescence was collected through a Nikon ×100 1.45 NA Plan Apo Lambda oil-immersion objective and a green-emission ET525/50 m (525 ± 25 nm) single-band bandpass filter (Chroma). […]
To calculate import rates in Xenopus egg extract, images were first thresholded to identify peroxisomes that were within the focal plane. A circular area with a diameter of 3 pixels was then centred on each local maximum and the mean fluorescence within this area was measured; the average fluorescence in the cytosol was then subtracted from the measured values. […]

[2] = system: YG hydrogel (wild-type YG-domain polypeptide of PEX13); test: YG hydrogel permeation assay, wild-type hydrogel (Fig. 2, Fig. 3g, Extended Data Fig. 9d); conditions: wild-type hydrogel
Procedure: A solution of the purified wild-type YG-domain polypeptide (or the variant lacking the KPWE motif) was concentrated to 2 mM in 50 mM HEPES·NaOH pH 7.8 at RT, 2 M urea and 2 mM TCEP. Aliquots of 2 µl were then spotted on the bottom of multiple wells of a 96-well glass-bottomed plate (Cellvis, P96-1.5H-N), which was then sealed with a gas-impermeable AlumaSeal II film (Hampton Research, HR8-069) to prevent desiccation and incubated at RT for 24 h. Before each assay, the resulting gels were equilibrated overnight at RT in a 100-fold excess of Assay Buffer (25 mM HEPES·NaOH pH 7.8 at RT, 150 mM NaCl and 1 mM TCEP). A 0.5 µM solution of fluorescently labelled protein in Assay Buffer was then added to the samples, with or without additional components at the concentrations indicated in the text, and incubated at RT. Gels were imaged at the times indicated in the text using a Nikon A1R point-scanning confocal system consisting of an inverted Nikon Eclipse Ti microscope and a Nikon ×20 0.75 NA Plan Apo air objective. The objective was centred on the gel edge and focus was maintained 5 µm above the glass surface using the Nikon Perfect Focus System. Fluorescence was excited through a 405/488/561/647 quad-band dichroic (Chroma), using a 488-nm solid-state laser (Coherent) and a galvano scanner. A 50-nm emission band was collected on a gallium arsenide phosphide detector, using an ET525/50m (525 ± 25 nm) single-band bandpass filter (Chroma) and a pinhole dilated to 0.9 Airy units. Images were acquired using the Nikon NIS-Elements software with a pixel size of 1 µm and a 12-bit digitizer. Imaging parameters were configured to maximize the SNR while avoiding saturation. All samples intended to be compared were imaged using identical acquisition settings.
(§1) For the YG hydrogel permeation assay, images were first oriented such that each gel edge faced the same direction. Fluorescence profiles across the buffer–gel interface were then generated by centering a 60 × 300 µm rectangular area on the gel edge and then measuring the mean fluorescence at each position within this selection. To express the resulting values in terms of fold enrichment, the fluorescence at each position along the selection was normalized to the average fluorescence in the buffer and plotted in terms of the distance from the gel edge.
To calculate permeation rates through the YG hydrogel, a 60 × 300 µm rectangular area was first centred on the gel edge. The resulting region was then thresholded to demarcate the permeation zone (that is, the distance traversed by the fluorescent species) from the buffer and non-permeated part of the gel. The width of the area above the threshold was then measured and plotted as a function of time. A linear fit to the data yielded the permeation rate.

[3] = system: YG hydrogel (∆KPWE YG-domain polypeptide of PEX13); test: YG hydrogel permeation assay, hydrogel lacking the KPWE motif (Fig. 3g); conditions: 1 h
Procedure: A solution of the purified wild-type YG-domain polypeptide (or the variant lacking the KPWE motif) was concentrated to 2 mM in 50 mM HEPES·NaOH pH 7.8 at RT, 2 M urea and 2 mM TCEP. Aliquots of 2 µl were then spotted on the bottom of multiple wells of a 96-well glass-bottomed plate (Cellvis, P96-1.5H-N), which was then sealed with a gas-impermeable AlumaSeal II film (Hampton Research, HR8-069) to prevent desiccation and incubated at RT for 24 h. Before each assay, the resulting gels were equilibrated overnight at RT in a 100-fold excess of Assay Buffer (25 mM HEPES·NaOH pH 7.8 at RT, 150 mM NaCl and 1 mM TCEP). […] Fluorescence was excited through a 405/488/561/647 quad-band dichroic (Chroma), using a 488-nm solid-state laser (Coherent) and a galvano scanner. […]
as §1

Molecule | Import into peroxisomes in Xenopus egg extract [1] | Entry into YG hydrogel [2] | Entry into YG hydrogel lacking the KPWE motif [3]
B1 | enters peroxisomes only when it is assembled into a complex with PEX5 and cargo | readily entered the phase | 
B2 |  |  | some entry of PEX7 into YG hydrogels was observed in the absence of the KPWE motif
